Source: patent publication US20240150494A1

Columns and labels:
[1] = target: G2F-Rituximab (galactosylated fucosylated glycoform of rituximab) (human); experiment: SPR, 256 to 8 nM in 2-fold steps
[2] = target: G2-Rituximab (galactosylated afucosylated glycoform of rituximab) (human); experiment: SPR, 256 to 8 nM in 2-fold steps

KD1 [1]: 55.2 nM | KD2 [1]: 2.29 nM | KD1 [2]: 29.9 nM | KD2 [2]: 2.3 nM
Substance: tetrameric FcγRIIIA (from UniProt P08637 17-208) (receptor)
